Source: patent US12589171B2, “177-Lu labeled peptide for site-specific uPAR-targeting” (priority 2012, dated 2026)
Read-outs that look alike come from different tables or passages of the source.

Key:
[1] = Biodistribution in Nude mice bearing HT-29 tumor xenograft (gamma-counter); assay type: in vivo, NMRI nude mice; conditions: female, NMRI nude, mouse, iv, total radioactivity
Experimental: (§1) Mice were sacrificed at 0.5, 1.0, 2.0, 4.0 and 24.0 h after injection, and a panel of organs, including blood drawn from the heart, was collected, weighed, and analyzed for radioactive content. Mean percent injected dose per gram (% ID/g)±SEM from three mice at each point is presented. A. Chemical structure of ^177Lu-DOTA-AE105. B(top) Biodistribution of ^177Lu-DOTA-AE105 in selected organs/tissues between 0.5 and 24.0 h. B (bottom). […] HT-29 colorectal cancer cells were obtained from the American Type Culture Collection (Manassas, VA, USA) and culture media was obtained from Invitrogen Co. (Carlsbad, CA, USA). The cell line was cultured in Mc.Coy's standard medium supplemented with 10% (v/v) fetal bovine serum and 1% (v/v) penicillin/Streptomycin at 37° C. and 5% CO2. Xenografts of human HT-29 colorectal cancer cells was established by injection of 200 μl cells (1×10^8 cells/ml) suspended in 100 μl Matrigel (BD Biosciences, San Jose, CA, USA), subcutaneously in the left and right flank of female NMRI nude mice obtained from Taconic, under anesthesia by Hypnorm/doricum (Study day −3). All animal experiments were performed under a protocol approved by the Animal Research Committee of the Danish Ministry of Justice. Biodistribution study was performed as previously described. In brief, Nude mice bearing HT-29 xenografts were injected in the tail-vein with 2-3 MBq of ^177Lu-DOTA-AE105 or ^177Lu-DOTA-AE105mut. All mice were euthanized after 0.5, 1, 2, 4 and 24 hr post tracer injection. Blood, tumor and major organs were collected (wet-weight) and the radioactivity was measured using a γ-counter from Perkin Elmer, MA, USA (N=4 mice/group).

HT-29 tumor xenograft = test: as above; assay type: in vivo, NMRI nude mice; conditions: mouse, in vivo
Experimental: as §1

[2] = set-up: species or system NMRI nude mice; conditions: mouse, in vivo
Excerpt: The organ uptake values, were time integrated to obtain the residence time per gram tissue for dosimetry calculations. Integration between time 0 and 24 hr was made by the trapezoid method. All time points were used to fit to a double exponential function (2-compartment model), which was used to estimate the residence time from 24 hr to infinity. The extrapolated area was in all organs/tissues <17% of the total calculated area, except kidneys (36.1%) and spleen (30.0%). The radioactive decay of ^177Lu produces mainly low energy […]. The S value for a 1 g sphere (0.0233 mGy/MBq s) was used to calculate the organ doses by multiplying it to the organ residence values as previously described. Based on the biodistribution data of ^177Lu-DOTA-AE105, estimates of the dosimetry were calculated (Table 1). […] However, the uPAR-positive fraction of the HT-29 tumor have previously been found only to be located in periphery of the tumor[25]. […] With this is mind and with the knowledge of the small penetration range of ^177Lu beta radiation (<2 mm), the present inventors calculated an estimate of local uPAR-positive tumor fraction dosimetry of approximate 58 mGy/MBq, thus resulting in the highest exposure for all organs/tissue investigated.

[3] = Toxicity in HT-29 therapy study (body weight, kidney H&E, deaths); assay type: in vivo, NMRI nude mice; conditions: HT-29 study
Excerpt: Results are presented as the mean±SEM, n=6 animals/group. B, H&E staining of kidney sections representing kidney epithelia (top) and glomerulus (Bottom) from each treatment group. […] One pair of kidneys from one animal/group was stained. Scale bar=25 μm, 40× zoom.
Three days after tumor cell inoculation (study day 0), 18 nude mice bearing the human colorectal carcinoma xenograft HT-29 in each flank were randomly divided into three groups consisting of 6 animals each. All animals in each group were first baseline PET/CT scanned with ^18F-FLT (day 0) before being dosed with 20 MBq of either ^177Lu-DOTA-AE105, ^177Lu-DOTA-AE105mut or vehicle. Subsequently, PET/CT scans of all mice in each group were repeated with ^18F-FLT on study day 1, 3 and 6. Second treatment dose (20 MBq) was administrated on day 7, followed by CT-scan day 8, 10 and 14 to measure tumor volumes using manual ROI drawing on the reconstructed images. On day 14, all animals were euthanized and tumors and kidneys were collected and kept for further analysis at −80° C.
uPAR ELISA on resected HT-29 tumors was done as described previously in detail. All results were performed as duplicate measurements. Expression of uPAR in formalin fixed and paraffin embedded tumor tissue was evaluated by immunohistochemical staining (FIG. 7) as previously published. A general histopathology examination was performed on H&E stained kidney tissue (one pair of kidneys from one animal from each treatment group) and performed by a trained pathologist (ODL).

human uPAR = molecular target: T1, human uPAR (Homo sapiens, UniProt Q03405); test: Ligand:uPAR interaction in vitro (binding affinity); conditions: binding affinity towards human uPAR
T1 construct: made in house
T1 sequence (Q03405 23-305): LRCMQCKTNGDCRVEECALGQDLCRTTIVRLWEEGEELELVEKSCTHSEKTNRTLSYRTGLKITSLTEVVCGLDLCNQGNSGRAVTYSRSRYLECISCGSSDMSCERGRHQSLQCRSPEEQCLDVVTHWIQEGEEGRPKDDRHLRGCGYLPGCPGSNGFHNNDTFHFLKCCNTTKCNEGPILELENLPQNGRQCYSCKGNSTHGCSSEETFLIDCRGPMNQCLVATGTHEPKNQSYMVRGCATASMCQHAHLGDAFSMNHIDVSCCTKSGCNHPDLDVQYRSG
Excerpt: In table 2, the amino acids sequences of each peptid conjugate with the corresponding binding affinity towards human uPAR are shown. Residues in bold is important for the interaction with uPAR. A substitution of two of these important amino acids (Phe^3 and Trp^8) with Glu, results in a complete loss of affinity towards uPAR. […] Importantly, no reduction in affinity is caused by conjugation of DOTA chelator in the N-terminal, illustrated with identical IC50-value between the un-conjugated peptide AE105 and the conjugated form DOTA-AE105.

`CC(C)C[C@H](NC(=O)[C@H](Cc1ccc(O)cc1)NC(=O)C(CCCNC(=N)N)NC(=O)C(CO)NC(=O)C(Cc1ccccc1)NC(=O)[C@H](CC1CCCCC1)NC(=O)[C@H](CC(=O)O)NC(=O)CN1CCN(CC(=O)O)CCN(CC(=O)O)CCN(CC(=O)O)CC1)C(=O)N[C@@H](Cc1c[nH]c2ccccc12)C(=O)N[C@@H](CO)C(N)=O` (stereo partly drawn) [^177Lu-DOTA-AE105, metal not drawn] showed a tissue to tissue ratio at 1 h ([1]; in vivo) of 12, a tissue to tissue ratio at 24 h ([1]; in vivo) of 3.3 and a tissue uptake at 0.5 h ([1]; in vivo, % ID/g Blood) of 2.71 %ID/g. It also gave a tissue uptake at 1 h ([1]; in vivo, % ID/g Blood) of 0.282 %ID/g, a tissue uptake at 2 h ([1]; in vivo, % ID/g Blood) of 0.173 %ID/g and a tissue uptake at 4 h ([1]; in vivo, % ID/g Blood) of 0.043 %ID/g. It also gave a tissue uptake at 24 h ([1]; in vivo, % ID/g Blood) of 0.005 %ID/g, a tissue uptake at 0.5 h ([1]; in vivo, % ID/g Bone) of 0.696 %ID/g and a tissue uptake at 1 h ([1]; in vivo, % ID/g Bone) of 0.699 %ID/g. It also gave a tissue uptake at 2 h ([1]; in vivo, % ID/g Bone) of 0.267 %ID/g, a tissue uptake at 4 h ([1]; in vivo, % ID/g Bone) of 0.258 %ID/g and a tissue uptake at 24 h ([1]; in vivo, % ID/g Bone) of 0.32 %ID/g. For the same compound, the tissue uptake at 0.5 h ([1]; in vivo, % ID/g Brain) was 0.075 %ID/g, the tissue uptake at 1 h ([1]; in vivo, % ID/g Brain) was 0.038 %ID/g and the tissue uptake at 2 h ([1]; in vivo, % ID/g Brain) was 0.026 %ID/g. The tissue uptake at 4 h ([1]; in vivo, % ID/g Brain) was 0.019 %ID/g, the tissue uptake at 24 h ([1]; in vivo, % ID/g Brain) was 0.005 %ID/g and the tissue uptake at 0.5 h ([1]; in vivo, % ID/g Heart) was 0.757 %ID/g. It also gave a tissue uptake at 1 h ([1]; in vivo, % ID/g Heart) of 0.143 %ID/g, a tissue uptake at 2 h ([1]; in vivo, % ID/g Heart) of 0.082 %ID/g and a tissue uptake at 4 h ([1]; in vivo, % ID/g Heart) of 0.05 %ID/g. It also gave a tissue uptake at 24 h ([1]; in vivo, % ID/g Heart) of 0.017 %ID/g, a tissue uptake at 0.5 h ([1]; in vivo, % ID/g Intestine) of 0.579 %ID/g and a tissue uptake at 1 h ([1]; in vivo, % ID/g Intestine) of 0.196 %ID/g. It also gave a tissue uptake at 2 h ([1]; in vivo, % ID/g Intestine) of 0.271 %ID/g, a tissue uptake at 4 h ([1]; in vivo, % ID/g Intestine) of 0.289 %ID/g and a tissue uptake at 24 h ([1]; in vivo, % ID/g Intestine) of 0.078 %ID/g. For the same compound, the tissue uptake at 0.5 h ([1]; in vivo, % ID/g Liver) was 0.686 %ID/g, the tissue uptake at 1 h ([1]; in vivo, % ID/g Liver) was 0.249 %ID/g and the tissue uptake at 2 h ([1]; in vivo, % ID/g Liver) was 0.243 %ID/g. It also gave a tissue uptake at 4 h ([1]; in vivo, % ID/g Liver) of 0.284 %ID/g, a tissue uptake at 24 h ([1]; in vivo, % ID/g Liver) of 0.149 %ID/g and a tissue uptake at 0.5 h ([1]; in vivo, % ID/g Muscle) of 0.58 %ID/g. For the same compound, the tissue uptake at 1 h ([1]; in vivo, % ID/g Muscle) was 0.084 %ID/g, the tissue uptake at 2 h ([1]; in vivo, % ID/g Muscle) was 0.047 %ID/g and the tissue uptake at 4 h ([1]; in vivo, % ID/g Muscle) was 0.053 %ID/g. It also gave a tissue uptake at 24 h ([1]; in vivo, % ID/g Muscle) of 0.01 %ID/g, a tissue uptake at 0.5 h ([1]; in vivo, % ID/g Spleen) of 0.924 %ID/g and a tissue uptake at 1 h ([1]; in vivo, % ID/g Spleen) of 0.262 %ID/g. For the same compound, the tissue uptake at 2 h ([1]; in vivo, % ID/g Spleen) was 0.222 %ID/g, the tissue uptake at 4 h ([1]; in vivo, % ID/g Spleen) was 0.303 %ID/g and the tissue uptake at 24 h ([1]; in vivo, % ID/g Spleen) was 0.109 %ID/g. The tissue uptake at 0.5 h ([1]; in vivo, % ID/g Tumor) was 1.78 %ID/g, the tissue uptake at 1 h ([1]; in vivo, % ID/g Tumor) was 0.614 %ID/g and the tissue uptake at 2 h ([1]; in vivo, % ID/g Tumor) was 0.17 %ID/g. It also gave a tissue uptake at 4 h ([1]; in vivo, % ID/g Tumor) of 0.17 ± 0.02 %ID/g, a tissue uptake at 24 h ([1]; in vivo, % ID/g Tumor) of 0.057 %ID/g and a tissue uptake at 0.5 h ([1]; kidney, Kidney, 0.5 h after injection, read-out: % ID/g Kidney) of 6.17 %ID/g. For the same compound, the tissue uptake at 1 h ([1]; kidney, Kidney, 1.0 h after injection, read-out: % ID/g Kidney) was 2.44 %ID/g, the tissue uptake at 2 h ([1]; kidney, Kidney, 2.0 h after injection, read-out: % ID/g Kidney) was 1.91 %ID/g and the tissue uptake at 4 h ([1]; kidney, Kidney, 4.0 h after injection, read-out: % ID/g Kidney) was 1.67 %ID/g. For the same compound, the tissue uptake at 24 h ([1]; kidney, Kidney, 24 h after injection, read-out: % ID/g Kidney) was 0.839 %ID/g, the “% ID/g Tumor” value (HT-29 tumor xenograft; female, NMRI nude, iv, 4 h) was 0.176 % ID/g and the “clearance from blood and organs” value (HT-29 tumor xenograft) was “fast clearance rate from blood and all organs investigated”. The “Dosimetry Blood” value [2] was 4.9 mGy/MBq, the “Dosimetry Bone” value [2] was 1.8 mGy/MBq and the “Dosimetry Brain” value [2] was 0.4 mGy/MBq. The “Dosimetry Heart” value [2] was 2.0 mGy/MBq, the “Dosimetry Intestine” value [2] was 2.9 mGy/MBq and the “Dosimetry Kidney” value [2] was 52.9 mGy/MBq. For the same compound, the “Dosimetry Liver” value [2] was 2.4 mGy/MBq, the “Dosimetry Muscle” value [2] was 1.2 mGy/MBq and the “Dosimetry Spleen” value [2] was 5.5 mGy/MBq. The “Dosimetry Tumor” value [2] was 5.8 mGy/MBq and the premature deaths [3] was “No animals died prematurely”.

Compound `CC(C)C[C@H](NC(=O)[C@H](Cc1ccc(O)cc1)NC(=O)[C@@H](CCCNC(=N)N)NC(=O)[C@@H](CO)NC(=O)[C@H](Cc1ccccc1)NC(=O)[C@H](CC1CCCCC1)NC(=O)[C@@H](N)CC(=O)O)C(=O)N[C@@H](Cc1c[nH]c2ccccc12)C(=O)N[C@@H](CO)C(N)=O` [AE105, Asp^1-Cha^2-Phe^3-ser^4-arg^5-Tyr^6-Leu^7-Trp^8-Ser^9] has an IC50 (human uPAR) of 6.7 nM.
